According to US20040147432A1 (MERCK, published 2004):
Bridges are numbered along the chain shown (N, C = ends). [ ]: non-standard residue; d: D form. βAla = NCCC(=O)O

B1: SEQ. ID. NO. 23 (peptide)
peptide: Ac-RCMLGAVYRPC-NH2
modifications: disulfide 2-11
SMILES: CSCC[C@@H]1NC(=O)[C@@H](NC(=O)[C@H](CCCNC(=N)N)NC(C)=O)CSSC[C@@H](C(N)=O)NC(=O)[C@@H]2CCCN2C(=O)[C@H](CCCNC(=N)N)NC(=O)[C@H](Cc2ccc(O)cc2)NC(=O)[C@H](C(C)C)NC(=O)[C@H](C)NC(=O)CNC(=O)[C@H](CC(C)C)NC1=O
notes: also called Ala^11

Assays:
[1] = molecular target: T1, human melanin concentrating hormone type 2 receptor (MCH-2R) (human, UniProt Q969V1 1-340); experiment: cell-based or functional assay
human MCH-1R [2] = molecular target: T2, human MCH-1R (human, UniProt Q99705 1-353); experiment: cell-based or functional assay
[3] = molecular target: T1, human melanin concentrating hormone …; experiment: SPA competition with [125I]-human MCH (Phe13, Tyr19) on receptor membranes
Experimental: (§1) For the SPA-based assay, WGA-PVT beads (NEN Life Sciences Products) were resuspended in Dulbecco's PBS with calcium and magnesium (500 mg beads in 4 ml PBS). […] The suspension was mixed gently for 20 minutes, 12.3 ml of assay buffer and protease inhibitors were added (final concentration given): 2 μg/ml leupeptin, 10 μM phosphoramidon, 40 μg/ml bacitracin, 5 μg/ml aprotinin, 0.1 mM Pefabloc.
(§2) Coated beads were kept on ice until use. […] Binding reactions were allowed to proceed at room temperature for 3 hours. Quantitation was performed by scintillation counting (TopCount device).

human MCH-1R [4] = molecular target: T2, human MCH-1R; experiment: as above
Experimental: as §1, §2

T1 sequence (Q969V1 whole entry, form in doubt): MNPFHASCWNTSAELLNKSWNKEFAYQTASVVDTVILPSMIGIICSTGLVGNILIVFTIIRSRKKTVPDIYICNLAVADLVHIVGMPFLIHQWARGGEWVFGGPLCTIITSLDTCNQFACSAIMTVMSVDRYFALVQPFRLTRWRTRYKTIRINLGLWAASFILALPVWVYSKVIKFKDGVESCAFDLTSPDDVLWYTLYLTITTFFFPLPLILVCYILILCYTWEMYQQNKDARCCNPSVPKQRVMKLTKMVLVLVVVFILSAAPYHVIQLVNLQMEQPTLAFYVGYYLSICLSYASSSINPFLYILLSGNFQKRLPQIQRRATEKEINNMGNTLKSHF
T2 sequence (Q99705 whole entry, form in doubt): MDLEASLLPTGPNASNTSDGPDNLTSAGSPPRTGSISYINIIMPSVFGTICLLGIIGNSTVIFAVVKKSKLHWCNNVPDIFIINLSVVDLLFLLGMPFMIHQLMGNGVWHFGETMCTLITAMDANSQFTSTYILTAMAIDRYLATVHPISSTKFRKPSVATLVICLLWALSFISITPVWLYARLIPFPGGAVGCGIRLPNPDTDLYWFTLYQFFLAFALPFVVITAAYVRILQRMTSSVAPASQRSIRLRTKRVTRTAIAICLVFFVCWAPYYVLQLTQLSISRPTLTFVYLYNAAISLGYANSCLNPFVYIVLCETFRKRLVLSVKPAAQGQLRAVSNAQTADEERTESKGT

Activation % at 10 µM (aequorin functional assay) [1] [%] | Activation % at 10 µM (aequorin functional assay) (human MCH-1R [2]) [%] | IC50 [3] [nM] | EC50 (aequorin functional assay) (human MCH-1R [2]) [nM] | EC50 (aequorin functional assay) [1] [nM] | IC50 (human MCH-1R [4]) [nM] | Binder
78 | 33 | 2.3 | – | – | – | RCMLXRVYRPC (D-Nle^10, also called D-Nle^10) [SEQ. ID. NO. 15]
92 | 3.2 | – | > 1000 | – | – | Ac-RCML[βAla]RVYRPC-NH2 (disulfide 2-11 (inferred)) [SEQ. ID. NO. 20]
76 | 93 | 9 | – | – | – | RCMLGRVXRPC (Cha^13 (2-cyclohexyl-alanine), also called Cha^13) [SEQ. ID. NO. 31]
83 | 23 | – | – | – | – | RCMLXRVYRPC (D-Leu^10) [SEQ. ID. NO. 14]
70 | 88 | – | – | 24 | – | RCMLGRVXRPC (Phe(pNH2)^13) [SEQ. ID. NO. 30]
36 | – | 9.7 | > 10000 | > 1000 | – | B1
91 | 113 | – | – | 12 | – | RCMLGRVYRXC (Sar^15 (sarcosine)) [SEQ. ID. NO. 32]
90 | 76 | 2.3 | – | – | – | RCMLGRVYRPX (D-Cys^16, also called D-Cys^16) [SEQ. ID. NO. 33]
100 | 98 | – | – | – | 0.6 | RCMLGRVXRPC (Phe(pF)^13, also called Phe(pF)^13) [SEQ. ID. NO. 29]
90 | 105 | – | – | 19 | – | RCMLGRVXRPC ((2)Nal^13 ((2')naphthylalanine)) [SEQ. ID. NO. 28]
86 | 110 | – | – | – | – | RCMLGXVYRPC (N-Me-Arg^11) [SEQ. ID. NO. 22]
103 | 106 | – | 15 | 16 | – | RCMLXRVYRPC (Nle^10 (norleucine)) [SEQ. ID. NO. 9]
94 | 95 | – | – | 40 | – | RCMLXRVYRPC (Sar^10 (sarcosine)) [SEQ. ID. NO. 6]
